Experimental data reported in US5939263.
pIC50: −log10 of the molar value.

Biological target: murine neuropeptide Y Yx receptor (murine)
Assay: displacement of ^125 I-PYY (90 pM) from membranes of COS-7 cells transfected with the murine NPY Yx receptor

Row | Substance | pIC50
1 | NPY(2-36) (peptide) | 7.80
2 | NPY(13-36) (peptide) | 6.87

The next substances have a higher pIC50 than those just listed; values first:

Row | pIC50 | Substance
3 | 7.85 | peptide YY
4 | 8.05 | Leu^31, Pro^34 !NPY (peptide)
5 | 8.22 | Neuropeptide Y
